Blank lines part the entries; values can stand above or below the binder they belong to. No end group written: not given here.
Assays:
[1] = molecular target: T1, recombinant LRP1-FC fusion protein (Cluster II) (UniProt Q07954 805-1184, limits assumed); experiment: Cy5.5-labelled peptide on LRP1-FC (Cluster II) protein G beads, flow cytometry
T1 construct: domain: Cluster II; Captured on protein G Dynabeads; not shown: Fc part
T1 sequence (looked up): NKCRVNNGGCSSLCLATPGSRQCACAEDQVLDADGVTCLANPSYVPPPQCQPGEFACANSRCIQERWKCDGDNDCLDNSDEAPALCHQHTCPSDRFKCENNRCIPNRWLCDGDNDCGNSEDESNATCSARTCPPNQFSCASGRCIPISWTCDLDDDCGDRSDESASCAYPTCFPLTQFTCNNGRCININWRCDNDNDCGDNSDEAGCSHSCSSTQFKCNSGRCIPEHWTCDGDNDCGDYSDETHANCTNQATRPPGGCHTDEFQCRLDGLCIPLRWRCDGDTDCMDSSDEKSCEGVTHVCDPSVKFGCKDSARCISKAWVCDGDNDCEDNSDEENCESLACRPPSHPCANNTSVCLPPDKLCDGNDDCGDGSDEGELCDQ

[2] = molecular target: T2, Recombinant LRP1 (Cluster II) (UniProt Q07954 805-1184, limits assumed); experiment: ELISA, plate-bound recombinant LRP1 (Cluster II), increasing concentrations of biotinylated peptide, streptavidin HRP
T2 construct: domain: Cluster II; Coated on the ELISA plate
T2 sequence (looked up): T1 sequence (looked up)

[3] = molecular target: TMPRSS2 (UniProt O15393 106-492, limits assumed); experiment: cell-based or functional assay
TMPRSS2, sequence (O15393 106-492 limits assumed): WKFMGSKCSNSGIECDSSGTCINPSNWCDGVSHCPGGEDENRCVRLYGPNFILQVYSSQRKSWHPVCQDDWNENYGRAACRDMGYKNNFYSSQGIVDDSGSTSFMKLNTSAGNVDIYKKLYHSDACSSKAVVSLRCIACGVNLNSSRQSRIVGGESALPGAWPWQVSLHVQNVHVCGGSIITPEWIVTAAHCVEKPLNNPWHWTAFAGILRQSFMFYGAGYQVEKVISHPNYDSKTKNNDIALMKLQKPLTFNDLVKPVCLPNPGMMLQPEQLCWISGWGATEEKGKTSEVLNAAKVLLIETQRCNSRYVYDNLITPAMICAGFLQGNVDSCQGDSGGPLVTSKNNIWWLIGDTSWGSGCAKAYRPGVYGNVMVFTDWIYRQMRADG

binding result [1]: no binding (tested: 1µg/ml) | binding result [2]: no binding
B1: SP34 (Scrambled Core) (peptide)
peptide: FPKMVPQFNTELKIFPEVNIK
modifications: also: biotinylated in ELISA, site not given here, labelled with Cy5.5 in bead assay, site not given here
notes: Contains the amino acids found in SP16 in scrambled orientation; also called scrambled control; scrambled control SP34 peptide

binding result [1]: no binding (tested: 1µg/ml)
B2: SP16AALRP1 (peptide)
peptide: VKFNKAAAAAAIEQNTK
modifications: not fully specified
notes: also called SP16AALRP1 peptide

IC50 of inhibition of TMPRSS2 activity [3]: 1.12 mg/L
B3: SP163M (peptide)
peptide: VKFNKPFVFLXIEQNTK
modifications: not fully specified; Norleucine (Nle) in place of the methionine (VKFNKPFVFL[Nle]IEQNTK); N-terminus acetylated; C-terminus amidated; biotinylated in the ELISA (Figure 3); labelled with Cy5.5 in the bead assay (Figure 4)

Reference: patent EP4789728A2 (Serpin Pharma, LLC, dated 2026)
